Assay results taken from paper PMC3699631, “Posttranslational Modifications of the Histone 3 Tail and Their Impact on the Activity of Histone Lysine Demethylases In Vitro” (PLoS ONE, 2013).
Entries after “also recorded” stand apart in the source; their conditions may differ.

Biological target: T1, human FL-KDM4A (Homo sapiens, UniProt O75164)
T1 construct: along with the full length FL- KDM4C and FL-KDM4A using various synthetic histone tail peptides as substrates; His6 (N); made in house; host or cells: High Five (Trichoplusia ni) insect cells, baculovirus
T1 sequence (O75164 1-1064): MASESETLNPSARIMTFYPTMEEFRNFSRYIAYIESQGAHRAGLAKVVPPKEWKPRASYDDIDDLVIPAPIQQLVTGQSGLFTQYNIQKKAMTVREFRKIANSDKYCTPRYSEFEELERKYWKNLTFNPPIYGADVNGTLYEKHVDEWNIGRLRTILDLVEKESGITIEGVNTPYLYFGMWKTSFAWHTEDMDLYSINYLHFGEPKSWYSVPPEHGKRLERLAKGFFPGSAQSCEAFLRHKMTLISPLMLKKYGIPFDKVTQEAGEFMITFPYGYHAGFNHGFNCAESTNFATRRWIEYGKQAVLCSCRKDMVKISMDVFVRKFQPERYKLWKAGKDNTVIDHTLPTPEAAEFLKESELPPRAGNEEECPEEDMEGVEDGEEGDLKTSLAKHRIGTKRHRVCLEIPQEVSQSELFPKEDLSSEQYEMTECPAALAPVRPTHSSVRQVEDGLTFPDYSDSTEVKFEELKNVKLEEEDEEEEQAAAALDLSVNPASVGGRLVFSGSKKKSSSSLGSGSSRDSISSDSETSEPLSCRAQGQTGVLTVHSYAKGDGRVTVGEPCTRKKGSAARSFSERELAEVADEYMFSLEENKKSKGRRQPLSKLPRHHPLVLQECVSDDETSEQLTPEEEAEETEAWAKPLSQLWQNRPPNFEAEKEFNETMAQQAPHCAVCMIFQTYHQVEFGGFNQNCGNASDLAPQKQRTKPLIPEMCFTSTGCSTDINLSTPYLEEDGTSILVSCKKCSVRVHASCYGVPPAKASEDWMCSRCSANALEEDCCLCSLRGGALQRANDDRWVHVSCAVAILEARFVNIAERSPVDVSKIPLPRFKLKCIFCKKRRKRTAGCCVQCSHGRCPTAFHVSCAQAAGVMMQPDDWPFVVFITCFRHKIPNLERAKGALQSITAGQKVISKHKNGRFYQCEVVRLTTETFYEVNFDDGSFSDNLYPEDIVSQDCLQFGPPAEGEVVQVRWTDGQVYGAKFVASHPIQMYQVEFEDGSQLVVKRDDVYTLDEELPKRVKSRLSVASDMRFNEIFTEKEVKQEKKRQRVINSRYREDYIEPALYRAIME
Assay: FDH-assay enzyme kinetics of H3 peptide demethylation, full length KDM4A
Assay type: biochemical
Parameters: key to K m / k cat / k cat /K m: 0 means no demethylation could be detected
Conditions: for demethylation / catalytic activity (in words) / K m / k cat / k cat /K m: FDH-assay; for K m: 50 mM HEPES (pH 7.5), 50 mM NaCl, 50 µM FeSO4, 500 µM α-KG, 500 µM ascorbate, 2 mM NAD, substrate 10–1000 µM, NADH fluorescence 15–30 minutes; for K m / k cat: triplicate; for k cat: pH 7.5, NADH fluorescence; for k cat /K m: pH 7.5, triplicate
Experimental: The enzyme kinetics were measured using a Formaldehyde DeHydrogenase Assay (FDH-Assay) and the demethylation of substrates was confirmed when possible by MALDI-TOF-MS, see File S1 for details. The test solution contained 50 mM HEPES (pH 7.5), 50 mM NaCl, 50 µM FeSO4, 500 µM α-KG, 500 µM ascorbate, 2 mM NAD, approximately 0.05 unit of FDH and e.g. 4.88 µM KDM4C (enzyme concentration varied between batches). The reference solution was comprised of the same except substrate. The assay was initiated by adding various concentrations of H3 peptide substrates e.g. H3(1–24)K9me3 (10–1000 µM) and the increase in NADH fluorescence was measured over 15–30 minutes in 30 second intervals. Data analysis and kinetic values were obtained using programs Excel and GraphPad Prism® 5.0. For details, see File S1.
The standard deviations for k cat/K m were calculated using the statistic law of propagation of errors. Standard errors for Michaelis-Menten Kinetics were automatically given in GraphPad Prism®, with a 95% confidence interval. All enzyme kinetic curves were done in triplicate unless otherwise stated.
Test for activity of enzyme using the fluorescence FDH assay, determination of Vmax and Km of enzymes with substrate, expression and purification of cc-KDM4A and cc-KDM4C software and parameters for the FDH coupled assay, see Lohse et al.^21
Recombinant baculoviridae encoding the full Open Reading Frame (ORF) of FL-KDM4A and FL-KDM4C were generously donated from the Biotech Research and Innovation Centre (BRIC), University of Copenhagen, Denmark. Recombinant protein was expressed by adding High Titer Stocks to High Five (Trichopulsia ni) insect cells in suspension culture. The cell cultures were harvested by centrifugation after ~ 60 hours and the cells were resuspended in hypotonic buffer (25 mM Hepes-KOH, pH 7.7, 1.5 mM MgCl, 5 mM KCl) supplemented with one protease inhibitor cocktail tablet per 500 ml expression (Roche, EDTA-free). The resuspended cells were frozen at -20 °C.
Both proteins were purified by IMAC using Talon FF (Clontech) cobalt resin according to the following protocol; resuspended cells were thawed on ice, 100 ml hypotonic buffer was added per 500 ml expression volume and the cells were incubated with stirring for 30 min. at 4 °C, followed by a brief (30 s per 500 ml culture volume) sonication. β-mercaptoethanol (BME, 2 mM final concentration), Triton X-100 (0.2 % final concentration) and NaCl (300 mM final concentration) were added and the cell suspension was stirred for another 30 min at 4 °C. The lysate was cleared by centrifugation at 50.000 g for 60 minutes. The cleared lysates were adjusted to 5 mM imidazole and incubated with Talon resin (1 ml /500 ml expression) for 60 minutes. The resin was allowed to sediment, the lysate removed and the resin was transferred to PD-10 gravity flow columns (GE Healthcare). The resin was washed with 10 column volumes of binding buffer (50 mM Hepes-KOH, pH 7.7, 300 mM NaCl, 5 mM imidazole, 10% glycerol, 0.05 % Triton X-100, 2 mM BME) and eluted with 2 x 2.5 ml elution buffer (50 mM Hepes-KOH, pH 7.7, 300 mM NaCl, 100 mM imidazole, 10 % glycerol, 0.05 % Triton X-100, 2 mM BME). Each eluted fraction has its buffer changed to 50 mM Hepes pH 7.5, 300 mM NaCl, 10 % glycerol using a PD-10 desalting column. The protein was concentrated to 6-7 mg/ml (FL-KDM4A) or 10-12 mg/ml (FL-KDM4C). Despite the buffer change it is likely that small amounts of Triton X-100 remained in the protein samples. Triton X-100 has a significant absorbance at 280 nm, so the protein concentration was determined by Bradford assay using a BSA standard curve. The protein purity was approximately 70 % as judged from SDS-PAGE. The concentrated protein was aliquoted and stored at -80 °C until assays were performed.
The standard deviations for kcat/ Km were calculated using the statistic law of propagation of errors. […]

[1] = SD by propagation of errors, unit: (min^−1 * µM^−1) * 10^3

| Substance | demethylation / catalytic activity (in words) | K m | k cat | fold increase in k cat/K m (compared to H3(1–24)K9me3) [fold] | k cat /K m (figures) [min^-1 * μM^-1 * 10^3] | k cat /K m [1] |
| --- | --- | --- | --- | --- | --- | --- |
| H3(1–24)K4me3K9me3: bis-tri-methylated substrate, trimethylated K4 in combination with H3K9me3 | an increase in FL-KDM4A demethylation activity, which is significantly higher compared to cc-KDM4A | 45±9 | 2.2±0.3 | 17 | 50 ± 9 | – |
| H3(1–24)K9me2: truncated histone tail, 24 first amino acids from the N-terminus of H3, dimethylated lysine 9 | too low to be detected; also recorded: could not be detected | 0 | 0 | – | – | 0 |
| H3(1–24)K9me3: truncated histone tail, 24 first amino acids from the N-terminus of H3, trimethylated lysine 9; control peptide | preference for the H3K9me3 over the H3K9me2 | 122±31 | – | – | 3 ± 0.4 | 3.1±0.3 |
| H3(1–24)K9me3T11(ph): H3(1–24)K9me3 with phosphorylation of threonine 11 | no detectable turnover | 0 | 0 | – | – | 0 |
